Experimental data reported in publication PMC10306287, “Computational design of the temperature optimum of an enzyme reaction” (Science Advances, 2023).
One block for each molecule: values may come before it.

Assays:
AHA (WT AHA α-amylase) = target: T1, AHA (WT AHA α-amylase) (Pseudoalteromonas haloplanktis, UniProt P29957); experiment: steady-state hydrolysis, 96-well spectrophotometer, nonlinear regression; format: biochemical; settings: 25 °C, PBS, 60 nM enzyme
T1 construct: gene amy; mature peptide residues 25-477, signal peptide excluded, codon-optimised in pET-22b(+), E. coli NiCo21(DE3), HisTrap purified (tag not described)

[1] = substrate: O=[N+]([O-])c1ccc(O[C@H]2O[C@H](CO)[C@@H](O[C@H]3O[C@H](CO)[C@@H](O[C@H]4O[C@H](CO)[C@@H](O)[C@H](O)[C@H]4O)[C@H](O)[C@H]3O)[C@H](O)[C@H]2O)c(Cl)c1; experiment: as above; format: biochemical, Pseudoalteromonas haloplanktis; settings: 25 °C, PBS, 60 nM enzyme

- Km (AHA (WT AHA α-amylase)): 2240 ± 220 µM
Molecule: O=[N+]([O-])c1ccc(O[C@H]2O[C@H](CO)[C@@H](O[C@H]3O[C@H](CO)[C@@H](O[C@H]4O[C@H](CO)[C@@H](O)[C@H](O)[C@H]4O)[C@H](O)[C@H]3O)[C@H](O)[C@H]2O)c(Cl)c1 [2-chloro-4-nitrophenyl-α-D-maltotrioside]

B1: AHA (WT AHA α-amylase) (Pseudoalteromonas haloplanktis) (protein)
chain: TPTTFVHLFEWNWQDVAQECEQYLGPKGYAAVQVSPPNEHITGSQWWTRYQPVSYELQSRGGNRAQFIDMVNRCSAAGVDIYVDTLINHMAAGSGTGTAGNSFGNKSFPIYSPQDFHESCTINNSDYGNDRYRVQNCELVGLADLDTASNYVQNTIAAYINDLQAIGVKGFRFDASKHVAASDIQSLMAKVNGSPVVFQEVIDQGGEAVGASEYLSTGLVTEFKYSTELGNTFRNGSLAWLSNFGEGWGFMPSSSAVVFVDNHDNQRGHGGAGNVITFEDGRLYDLANVFMLAYPYGYPKVMSSYDFHGDTDAGGPNVPVHNNGNLECFASNWKCEHRWSYIAGGVDFRNNTADNWAVTNWWDNTNNQISFGRGSSGHMAINKEDSTLTATVQTDMASGQYCNVLKGELSADAKSCSGEVITVNSDGTINLNIGAWDAMAIHKNAKLNTSSAS
notes: mature peptide residues 25-477, signal peptide excluded, codon-optimised in pET-22b(+), E. coli NiCo21(DE3), HisTrap purified (tag not described)
- Km [1]: 2810 ± 110 µM
- kcat [1]: 1.775 ± 0.11 s⁻¹
